Data: paper PMC9600270 (Cancers, 2022)

Tests used:
[1] = system: RD cells (cell surface nucleolin); experiment: Lactoferrin competition of QD-F3 binding, RD; assay type: cell-based; details: 2 μM lactoferrin pretreatment 20 min, then 20 nM QD-F3 + 2 μM lactoferrin 1 h on ice, FACS
[2] = system: Rh30 cells (cell surface nucleolin); experiment: Lactoferrin competition of QD-F3 binding, Rh30; assay type: cell-based; details: 2 μM lactoferrin pretreatment 20 min, then 20 nM QD-F3 + 2 μM lactoferrin 1 h on ice, FACS

B1: lactoferrin: human milk lactoferrin, high-affinity natural ligand of nucleolin (protein, UniProt P02788 20-710, looked up)
Lactotransferrin: GRRRSVQWCAVSQPEATKCFQWQRNMRKVRGPPVSCIKRDSPIQCIQAIAENRADAVTLDGGFIYEAGLAPYKLRPVAAEVYGTERQPRTHYYAVAVVKKGGSFQLNELQGLKSCHTGLRRTAGWNVPIGTLRPFLNWTGPPEPIEAAVARFFSASCVPGADKGQFPNLCRLCAGTGENKCAFSSQEPYFSYSGAFKCLRDGAGDVAFIRESTVFEDLSDEAERDEYELLCPDNTRKPVDKFKDCHLARVPSHAVVARSVNGKEDAIWNLLRQAQEKFGKDKSPKFQLFGSPSGQKDLLFKDSAIGFSRVPPRIDSGLYLGSGYFTAIQNLRKSEEEVAARRARVVWCAVGEQELRKCNQWSGLSEGSVTCSSASTTEDCIALVLKGEADAMSLDGGYVYTAGKCGLVPVLAENYKSQQSSDPDPNCVDRPVEGYLAVAVVRRSDTSLTWNSVKGKKSCHTAVDRTAGWNIPMGLLFNQTGSCKFDEYFSQSCAPGSDPRSNLCALCIGDEQGENKCVPNSNERYYGYTGAFRCLAENAGDVAFVKDVTVLQNTDGNNNEAWAKDLKLADFALLCLDGKRKPVTEARSCHLAMAPNHAVVSRMDKVERLKQVLLHQQAKFGRNGSDCPDKFCLFQSETKNLLFNDNTECLARLHGKTTYEKYLGPQYVAGITNLKKCSTSPLLEACEFLRK
- QD-F3 binding upon co-incubation with excess lactoferrin [1]: clear decrease
- QD-F3 binding upon co-incubation with excess lactoferrin [2]: clear decrease
